We go through 9 molecules from patent US20060115479A1 (INTERCELL, published 2006).

Experiment [1] concerns the target human fibrinogen (human) (UniProt P02671). The experiment in a line: FITC-labelled bacteria on fibrinogen-coated Terasaki plates; less than 2% of the fbsA mutant bound.
The target is the same in experiment [2]. The experiment in a line: 125I-fibrinogen bound to whole bacteria; fbsA deletion mutant bound less than 2%.
The target is the same in experiment [3]. The experiment in a line: FITC-labelled bacteria on immobilized fibrinogen; less than 2% of the fbsA mutants bound (FIG. 23).
For experiment [4] the target is unchanged. In words: radiolabelled soluble human fibrinogen bound to whole GBS 6313 cells; the filing later attributes the binding to FbsA.
The target in experiment [5] is T1, human fibrinogen (human, UniProt P02671 20-629; P02675 31-491; P02679 27-437).
T1 construct: also called 125I-labelled fibrinogen; immobilized fibrinogen
T1 sequence 1: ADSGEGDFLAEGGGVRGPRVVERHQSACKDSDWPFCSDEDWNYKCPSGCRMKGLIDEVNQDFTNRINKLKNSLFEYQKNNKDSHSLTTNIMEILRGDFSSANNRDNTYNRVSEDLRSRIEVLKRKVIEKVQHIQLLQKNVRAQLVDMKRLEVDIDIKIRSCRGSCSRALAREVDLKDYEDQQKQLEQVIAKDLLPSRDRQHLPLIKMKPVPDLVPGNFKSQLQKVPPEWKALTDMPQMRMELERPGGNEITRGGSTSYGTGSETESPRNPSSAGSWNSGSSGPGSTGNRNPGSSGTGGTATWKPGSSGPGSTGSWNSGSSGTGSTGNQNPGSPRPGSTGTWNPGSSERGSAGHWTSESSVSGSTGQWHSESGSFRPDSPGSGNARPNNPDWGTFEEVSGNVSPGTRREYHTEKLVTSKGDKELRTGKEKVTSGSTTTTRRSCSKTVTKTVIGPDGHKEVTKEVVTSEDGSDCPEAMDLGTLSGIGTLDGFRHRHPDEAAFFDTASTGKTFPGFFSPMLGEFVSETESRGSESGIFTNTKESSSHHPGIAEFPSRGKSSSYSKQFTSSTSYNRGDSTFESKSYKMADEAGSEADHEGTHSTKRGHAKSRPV
T1 sequence 2: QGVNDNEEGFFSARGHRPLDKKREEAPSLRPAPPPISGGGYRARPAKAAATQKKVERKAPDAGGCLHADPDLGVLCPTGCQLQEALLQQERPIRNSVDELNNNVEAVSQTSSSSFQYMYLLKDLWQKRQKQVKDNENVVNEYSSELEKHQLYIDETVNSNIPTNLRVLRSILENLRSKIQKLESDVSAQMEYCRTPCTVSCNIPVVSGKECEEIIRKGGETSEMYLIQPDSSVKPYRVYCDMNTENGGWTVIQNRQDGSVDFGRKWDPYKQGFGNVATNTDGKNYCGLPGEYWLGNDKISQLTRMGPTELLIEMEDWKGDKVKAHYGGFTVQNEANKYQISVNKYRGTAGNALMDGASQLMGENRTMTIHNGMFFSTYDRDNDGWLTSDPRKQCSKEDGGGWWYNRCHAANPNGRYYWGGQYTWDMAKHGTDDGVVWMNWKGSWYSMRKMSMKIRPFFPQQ
T1 sequence 3: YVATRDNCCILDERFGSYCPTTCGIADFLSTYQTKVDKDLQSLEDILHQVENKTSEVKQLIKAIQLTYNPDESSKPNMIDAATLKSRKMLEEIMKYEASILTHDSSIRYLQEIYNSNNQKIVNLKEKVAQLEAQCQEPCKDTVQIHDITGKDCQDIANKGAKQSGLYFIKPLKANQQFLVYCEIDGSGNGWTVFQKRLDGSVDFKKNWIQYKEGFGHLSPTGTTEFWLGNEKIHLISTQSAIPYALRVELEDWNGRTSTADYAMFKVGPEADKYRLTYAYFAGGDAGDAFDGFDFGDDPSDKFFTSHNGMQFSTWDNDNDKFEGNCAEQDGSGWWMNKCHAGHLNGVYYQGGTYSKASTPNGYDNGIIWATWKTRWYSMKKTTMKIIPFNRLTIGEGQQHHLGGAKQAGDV
In words: dot blot / SPOT membrane overlaid with human fibrinogen (FIG. 11).

Experiment [6] has as its target T1, human fibrinogen. The experiment in a line: refers to the SPOT membrane analysis of FIG. 11.

Consider “FbsA protein of GBS strain O90R (native) (receptor)”, for which the percent of total bacteria bound to immobilized fibrinogen in the experiment with human fibrinogen (human) [1] is 24%; in the experiment with human fibrinogen (human) [3], 18%. Also, in the experiment with human fibrinogen (human) [2], the percent binding of 125I-labelled soluble fibrinogen was found to be 12%.

As for “FbsA protein of GBS strain 0176 H4A (native) (receptor)”, the percent of total bacteria bound to immobilized fibrinogen in the experiment with human fibrinogen (human) [3] came out at 4%.

Molecule “FbsA protein of GBS strain SS1169 (native) (receptor)” gave a percent of total bacteria bound to immobilized fibrinogen in the experiment with human fibrinogen (human) [3] of 7%.

Take “FbsA protein of GBS strain 706 S2 (native) (receptor)”: the values for the percent of total bacteria bound to immobilized fibrinogen in the experiment with human fibrinogen (human) [1] and with human fibrinogen (human) [3] were 15% and 14%, respectively. The same molecule came in with a percent binding of 125I-labelled soluble fibrinogen in the experiment with human fibrinogen (human) [2] of 8%.

In the experiment with human fibrinogen (human) [4], “FbsA protein of GBS strain 6313 (native) (receptor)” registered a percent of total radiolabelled fibrinogen bound of 50%. Also, the percent of total bacteria bound to immobilized fibrinogen in the experiment with human fibrinogen (human) [1] and with human fibrinogen (human) [3] was 45% in each case. In the experiment with human fibrinogen (human) [2], this molecule yielded a percent binding of 125I-labelled soluble fibrinogen of 50%.

B1: scrambled peptide GLSQNRDVRENQRARE (peptide)
peptide: GLSQNRDVRENQRARE
notes: Same amino acids as the repeat unit in a different order; spotted on cellulose; also called randomised peptide
For B1, the binding result with human fibrinogen [5] is given as “no binding (tested: 2 µg/ml of human fibrinogen)”.

Regarding GAVLERRQRDAENRSQ (also called peptide <2>; N2A) [alanine mutant peptide GAVLERRQRDAENRSQ], the binding result with human fibrinogen [6] is “no binding”.

Take GNALERRQRDAENRSQ (also called peptide <3>; V3A) [alanine mutant peptide GNALERRQRDAENRSQ]: the binding result with human fibrinogen [6] is “no binding”.

Take GNVLERAQRDAENRSQ (also called peptide <5>; R7A) [alanine mutant peptide GNVLERAQRDAENRSQ]: the binding result in the experiment with human fibrinogen [6] is on record as “no binding”.
